B1: ChPPK (Cytophaga hutchinsonii ATCC 33406) (protein)
chain: MATDFSKLSKYVETLRVKPKQSIDLKKDFDTDYDHKMLTKEEGEELLNLGISKLSEIQEKLYASGTKSVLIVFQAMDAAGKDGTVKHIMTGLNPQGVKVTSFKVPSKIELSHDYLWRHYVALPATGEIGIFNRSHYENVLVTRVHPEYLLSEQTSGVTAIEQVNQKFWDKRFQQINNFEQHISENGTIVLKFFLHVSKKEQKKRFIERIELDTKNWKFSTGDLKERAHWKDYRNAYEDMLANTSTKQAPWFVIPADDKWFTRLLIAEIICTELEKLNLTFPTVSLEQKAELEKAKAELVAEKSSD
notes: synthesized gene expressed in E. coli BL21(DE3) from pXMJ-19, Ni-NTA purified
B2: ChPPK (Cytophaga hutchinsonii ATCC 33406; D82N) (protein)
chain: B1 chain with D82N
notes: as for B1
B3: ChPPK (Cytophaga hutchinsonii ATCC 33406; K103E) (protein)
chain: B1 chain with K103E
notes: as for B1

Changes are numbered by the printed parent chain. Numbers in names are those of the source.

Km, kcat and kcat/Km data for 3 proteins are collected here from publication PMC10401862, “A high-throughput dual system to screen polyphosphate kinase mutants for efficient ATP regeneration in L-theanine biocatalysis” (Biotechnology for Biofuels and Bioproducts, 2023).

Substrate in this series: Nc1ncnc2c1ncn2[C@@H]1O[C@H](COP(=O)(O)OP(=O)(O)O)[C@@H](O)[C@H]1O
Nature of the series: purified protein. The series is classed as biochemical, Cytophaga hutchinsonii. The note with it: 100 mM Tris-HCl pH 8.0, 35 °C, MgCl2, ADP 0.1 to 5 mM, polyP6 as co-substrate.
Take B1: the Km – broadly, the substrate concentration at which the rate is half of its maximum – turned out to be 1.39 ± 0.07 mM; the kcat (as a rule, the maximal rate divided by the concentration of active sites) amounted to 10 ± 0.13 s⁻¹; the kcat/Km (as a rule, the second-order rate constant that governs catalysis at low substrate concentration) was found to be 7220 M⁻¹ s⁻¹.

B2: the Km is recorded as 0.95 ± 0.03 mM, the kcat is 15.05 ± 0.04 s⁻¹ and the specificity constant (kcat/Km) is 15800 M⁻¹ s⁻¹.

Turning to B3, the Km is reported as 0.81 ± 0.12 mM, the kcat amounted to 19.69 ± 0.12 s⁻¹ and the kcat/Km turned out to be 24300 M⁻¹ s⁻¹.
